What was measured:
[1] = target: pUL53 hook peptide (Human cytomegalovirus) (UniProt P16794); settings: cited from earlier work
[2] = target: pUL50 (Human cytomegalovirus) (UniProt P16791); assay: competition with pUL50-pUL53 interaction; settings: cited from earlier work
pUL50 [3] = target: T1, pUL50 (Human cytomegalovirus, UniProt P16791); assay: fluorescence polarization
T1 chain: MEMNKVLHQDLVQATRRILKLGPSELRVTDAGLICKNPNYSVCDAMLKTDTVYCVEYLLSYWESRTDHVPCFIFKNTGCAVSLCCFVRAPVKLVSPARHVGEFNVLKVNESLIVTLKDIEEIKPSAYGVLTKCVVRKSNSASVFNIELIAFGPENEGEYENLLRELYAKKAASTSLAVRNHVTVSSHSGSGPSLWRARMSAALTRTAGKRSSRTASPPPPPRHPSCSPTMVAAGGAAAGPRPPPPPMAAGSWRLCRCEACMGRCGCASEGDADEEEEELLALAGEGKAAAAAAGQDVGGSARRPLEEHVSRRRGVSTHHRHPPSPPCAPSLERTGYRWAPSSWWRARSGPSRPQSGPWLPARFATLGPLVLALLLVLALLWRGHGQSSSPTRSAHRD

BFRF1 = target: T2, BFRF1 (Epstein-Barr virus, UniProt P03185); assay: fluorescence polarization
T2 chain: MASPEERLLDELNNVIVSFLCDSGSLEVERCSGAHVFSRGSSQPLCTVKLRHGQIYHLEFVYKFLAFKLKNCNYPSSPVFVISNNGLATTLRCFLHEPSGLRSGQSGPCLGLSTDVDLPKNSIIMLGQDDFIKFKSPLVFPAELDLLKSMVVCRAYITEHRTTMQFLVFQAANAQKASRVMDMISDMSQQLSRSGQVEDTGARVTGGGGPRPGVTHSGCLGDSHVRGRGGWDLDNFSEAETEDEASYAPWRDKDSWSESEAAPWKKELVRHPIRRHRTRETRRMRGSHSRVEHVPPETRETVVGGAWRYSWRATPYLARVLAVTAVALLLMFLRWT

pUL50 [4] = target: T1, pUL50; assay: competition with pUL50-pUL53 interaction

Chain of pUL53 hook peptide (Human cytomegalovirus) (P16794 whole entry): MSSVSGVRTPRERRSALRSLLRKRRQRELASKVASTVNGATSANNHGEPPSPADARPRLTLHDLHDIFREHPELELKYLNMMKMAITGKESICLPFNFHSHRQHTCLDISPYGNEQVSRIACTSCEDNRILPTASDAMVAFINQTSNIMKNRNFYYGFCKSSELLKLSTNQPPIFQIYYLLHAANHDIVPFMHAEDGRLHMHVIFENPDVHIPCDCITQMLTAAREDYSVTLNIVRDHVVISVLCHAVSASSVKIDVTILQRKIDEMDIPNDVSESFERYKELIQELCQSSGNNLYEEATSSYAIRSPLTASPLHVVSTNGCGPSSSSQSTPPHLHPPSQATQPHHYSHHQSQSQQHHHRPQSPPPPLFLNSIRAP

pUL50 (from UniProt P16791)
Kd [1]: 120 nM

pUL53 hook peptide
IC50 [2]: 110 nM

B1: pUL53 hook peptide 59-87 (peptide)
chain: LTLHDLHDIFREHPELELKYLNMMKMAIT
Kd (pUL50 [3]): 120 nM

B2: BFLF2 hook peptide 78-110 (peptide)
chain: DRSHFSLRDFFRGISANFELGKDFLREMNTPIH
Kd (BFRF1): 117 nM

B3: pUL53 hook peptide (peptide)
chain: LTLHDLHDIFREHPELELKYLNMMKMAIT
IC50 (pUL50 [4]): 50 nM

Reference: publication PMC7354485 (2020)
